The record followed here is paper PMC10786891, “Massively parallel profiling of RNA-targeting CRISPR-Cas13d”.

T1: EsCas13d, nuclease-dead (Eubacterium siraeum, UniProt B0MS50, R295A;H300A;R849A;H854A)
T1 sequence: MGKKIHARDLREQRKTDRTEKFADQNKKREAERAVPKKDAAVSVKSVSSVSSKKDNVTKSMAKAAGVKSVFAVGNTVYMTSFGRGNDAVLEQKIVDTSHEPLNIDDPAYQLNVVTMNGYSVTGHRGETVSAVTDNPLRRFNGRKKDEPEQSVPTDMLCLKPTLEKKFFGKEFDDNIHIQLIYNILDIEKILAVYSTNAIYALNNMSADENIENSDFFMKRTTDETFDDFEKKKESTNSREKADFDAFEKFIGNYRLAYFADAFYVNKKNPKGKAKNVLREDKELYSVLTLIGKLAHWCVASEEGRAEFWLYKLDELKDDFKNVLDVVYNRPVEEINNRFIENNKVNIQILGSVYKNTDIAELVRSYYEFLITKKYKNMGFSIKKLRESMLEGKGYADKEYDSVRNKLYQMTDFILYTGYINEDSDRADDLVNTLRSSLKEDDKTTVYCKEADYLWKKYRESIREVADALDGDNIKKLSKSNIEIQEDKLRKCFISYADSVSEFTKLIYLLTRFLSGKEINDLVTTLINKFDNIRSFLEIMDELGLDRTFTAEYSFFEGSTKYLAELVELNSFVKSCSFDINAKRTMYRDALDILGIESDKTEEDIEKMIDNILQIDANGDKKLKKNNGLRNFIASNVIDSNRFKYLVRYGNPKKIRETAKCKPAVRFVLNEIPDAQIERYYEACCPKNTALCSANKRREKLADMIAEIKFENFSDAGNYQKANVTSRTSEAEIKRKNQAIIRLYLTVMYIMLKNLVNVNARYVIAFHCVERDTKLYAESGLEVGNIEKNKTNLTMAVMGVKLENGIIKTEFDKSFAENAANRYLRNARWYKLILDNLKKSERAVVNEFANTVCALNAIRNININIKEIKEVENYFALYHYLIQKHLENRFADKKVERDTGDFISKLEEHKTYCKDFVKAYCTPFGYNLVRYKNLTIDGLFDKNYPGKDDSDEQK

B1: target 1 C2G,C6U (mixed)
RNA 1: CACCCGUGCAAAAAUGCAGGGGUCUAAAACUGAGCGGAUAACCUCUCUAUGG
RNA 2: GGGAAUGGAUCCACAUCUACGAAUUCGUACCAUAGAGAGGUUAUCUGCUGACCGAGAUCGGAAGAGCACACGU
B2: target 1 C2U,G5U (mixed)
RNA 1: CACCCGUGCAAAAAUGCAGGGGUCUAAAACUGAGCGGAUAACCUCUCUAUGG
RNA 2: GGGAAUGGAUCCACAUCUACGAAUUCGUACCAUAGAGAGGUUAUCCUCUUACCGAGAUCGGAAGAGCACACGU
B3: target 1 insG 3' of 21,insA 3' of 5 (mixed)
RNA 1: CACCCGUGCAAAAAUGCAGGGGUCUAAAACUGAGCGGAUAACCUCUCUAUGG
RNA 2: GGGAAUGGAUCCACAUCUACGAAUUCGUACCGAUAGAGAGGUUAUCCGACUCACCGAGAUCGGAAGAGCACACGU
B4: target 1 insC 3' of 17,insA 3' of 13 (mixed)
RNA 1: CACCCGUGCAAAAAUGCAGGGGUCUAAAACUGAGCGGAUAACCUCUCUAUGG
RNA 2: GGGAAUGGAUCCACAUCUACGAAUUCGUACCAUAGCAGAGAGUUAUCCGCUCACCGAGAUCGGAAGAGCACACGU
B5: target 1 insA 3' of 21,insC 3' of 3 (mixed)
RNA 1: CACCCGUGCAAAAAUGCAGGGGUCUAAAACUGAGCGGAUAACCUCUCUAUGG
RNA 2: GGGAAUGGAUCCACAUCUACGAAUUCGUACCAAUAGAGAGGUUAUCCGCUCCACCGAGAUCGGAAGAGCACACGU
B6: target 1 A1U,A16G (mixed)
RNA 1: CACCCGUGCAAAAAUGCAGGGGUCUAAAACUGAGCGGAUAACCUCUCUAUGG
RNA 2: GGGAAUGGAUCCACAUCUACGAAUUCGUACCAUAGGGAGGUUAUCCGCUCUCCGAGAUCGGAAGAGCACACGU
B7: target 1 insC 3' of 9,insC 3' of 3 (mixed)
RNA 1: CACCCGUGCAAAAAUGCAGGGGUCUAAAACUGAGCGGAUAACCUCUCUAUGG
RNA 2: GGGAAUGGAUCCACAUCUACGAAUUCGUACCAUAGAGAGGUUACUCCGCUCCACCGAGAUCGGAAGAGCACACGU
B8: target 1 insU 3' of 6,insA 3' of 5 (mixed)
RNA 1: CACCCGUGCAAAAAUGCAGGGGUCUAAAACUGAGCGGAUAACCUCUCUAUGG
RNA 2: GGGAAUGGAUCCACAUCUACGAAUUCGUACCAUAGAGAGGUUAUCCUGACUCACCGAGAUCGGAAGAGCACACGU
B9: target 1 A16C,G17A (mixed)
RNA 1: CACCCGUGCAAAAAUGCAGGGGUCUAAAACUGAGCGGAUAACCUCUCUAUGG
RNA 2: GGGAAUGGAUCCACAUCUACGAAUUCGUACCAUAACGAGGUUAUCCGCUCACCGAGAUCGGAAGAGCACACGU
B10: target 1 C2U,G17C (mixed)
RNA 1: CACCCGUGCAAAAAUGCAGGGGUCUAAAACUGAGCGGAUAACCUCUCUAUGG
RNA 2: GGGAAUGGAUCCACAUCUACGAAUUCGUACCAUACAGAGGUUAUCCGCUUACCGAGAUCGGAAGAGCACACGU
B11: target 1 insG 3' of 18,insU 3' of 7 (mixed)
RNA 1: CACCCGUGCAAAAAUGCAGGGGUCUAAAACUGAGCGGAUAACCUCUCUAUGG
RNA 2: GGGAAUGGAUCCACAUCUACGAAUUCGUACCAUAGGAGAGGUUAUCUCGCUCACCGAGAUCGGAAGAGCACACGU
B12: target 1 G5U,G17C (mixed)
RNA 1: CACCCGUGCAAAAAUGCAGGGGUCUAAAACUGAGCGGAUAACCUCUCUAUGG
RNA 2: GGGAAUGGAUCCACAUCUACGAAUUCGUACCAUACAGAGGUUAUCCUCUCACCGAGAUCGGAAGAGCACACGU
B13: target 1 complement block 2-4 (mixed)
RNA 1: CACCCGUGCAAAAAUGCAGGGGUCUAAAACUGAGCGGAUAACCUCUCUAUGG
RNA 2: GGGAAUGGAUCCACAUCUACGAAUUCGUACCAUAGAGAGGUUAUCCGGAGACCGAGAUCGGAAGAGCACACGU
B14: target 1 G15A,G17C (mixed)
RNA 1: CACCCGUGCAAAAAUGCAGGGGUCUAAAACUGAGCGGAUAACCUCUCUAUGG
RNA 2: GGGAAUGGAUCCACAUCUACGAAUUCGUACCAUACAAAGGUUAUCCGCUCACCGAGAUCGGAAGAGCACACGU
B15: target 1 C2G,U11G (mixed)
RNA 1: CACCCGUGCAAAAAUGCAGGGGUCUAAAACUGAGCGGAUAACCUCUCUAUGG
RNA 2: GGGAAUGGAUCCACAUCUACGAAUUCGUACCAUAGAGAGGGUAUCCGCUGACCGAGAUCGGAAGAGCACACGU
B16: target 1 insC 3' of 22,insA 3' of 3 (mixed)
RNA 1: CACCCGUGCAAAAAUGCAGGGGUCUAAAACUGAGCGGAUAACCUCUCUAUGG
RNA 2: GGGAAUGGAUCCACAUCUACGAAUUCGUACCCAUAGAGAGGUUAUCCGCUACACCGAGAUCGGAAGAGCACACGU
B17: target 1 del5,del9 (mixed)
RNA 1: CACCCGUGCAAAAAUGCAGGGGUCUAAAACUGAGCGGAUAACCUCUCUAUGG
RNA 2: GGGAAUGGAUCCACAUCUACGAAUUCGUACCAUAGAGAGGUUUCCCUCACCGAGAUCGGAAGAGCACACGU
B18: target 1 A9G,A20U (mixed)
RNA 1: CACCCGUGCAAAAAUGCAGGGGUCUAAAACUGAGCGGAUAACCUCUCUAUGG
RNA 2: GGGAAUGGAUCCACAUCUACGAAUUCGUACCUUAGAGAGGUUGUCCGCUCACCGAGAUCGGAAGAGCACACGU
B19: target 1 C6G,G12A (mixed)
RNA 1: CACCCGUGCAAAAAUGCAGGGGUCUAAAACUGAGCGGAUAACCUCUCUAUGG
RNA 2: GGGAAUGGAUCCACAUCUACGAAUUCGUACCAUAGAGAGAUUAUCGGCUCACCGAGAUCGGAAGAGCACACGU
B20: target 1 A9G,U11A (mixed)
RNA 1: CACCCGUGCAAAAAUGCAGGGGUCUAAAACUGAGCGGAUAACCUCUCUAUGG
RNA 2: GGGAAUGGAUCCACAUCUACGAAUUCGUACCAUAGAGAGGAUGUCCGCUCACCGAGAUCGGAAGAGCACACGU
B21: target 1 insG 3' of 16,insC 3' of 13 (mixed)
RNA 1: CACCCGUGCAAAAAUGCAGGGGUCUAAAACUGAGCGGAUAACCUCUCUAUGG
RNA 2: GGGAAUGGAUCCACAUCUACGAAUUCGUACCAUAGAGGAGCGUUAUCCGCUCACCGAGAUCGGAAGAGCACACGU
B22: target 1 complement block 1-4 (mixed)
RNA 1: CACCCGUGCAAAAAUGCAGGGGUCUAAAACUGAGCGGAUAACCUCUCUAUGG
RNA 2: GGGAAUGGAUCCACAUCUACGAAUUCGUACCAUAGAGAGGUUAUCCGGAGUCCGAGAUCGGAAGAGCACACGU
B23: target 1 del8,del13 (mixed)
RNA 1: CACCCGUGCAAAAAUGCAGGGGUCUAAAACUGAGCGGAUAACCUCUCUAUGG
RNA 2: GGGAAUGGAUCCACAUCUACGAAUUCGUACCAUAGAGAGUUACCGCUCACCGAGAUCGGAAGAGCACACGU

For this series, the target named is T1, EsCas13d, nuclease-dead. Briefly: crRNA (strand 1, pre-loaded); Mg2+; 40 mM Tris-HCl pH 7.5, 150 mM NaCl, 6 mM MgCl2, 1 mM DTT, 0.1% Tween-20, 0.2 mg/ml BSA; 25 C; 10 min per concentration, then washed. The following applies: tags: His6-TwinStrep-SUMO cleaved; N-terminal SNAP kept (SNAP-Surface 488); label: 3' end held by stalled T7 RNA polymerase.
On to B1, for which the affinity, expressed as Kd, was 4.97 ± 0.22 nM.
Consider B2, for which the Kd – broadly, the free concentration of one partner at which half of the binding sites on the other are occupied at equilibrium, for simple one-to-one binding – amounted to 23.2 ± 1 nM. This Kd lies about 4.7-fold higher than the previous one.
Regarding B3, the Kd worked out at 37 ± 9 nM.
Molecule B4 displayed a Kd of 22.3 ± 2.4 nM.
The value for B5 was 13.2 ± 0.7 nM; that for B6 was 33 ± 7 nM.
The molecule B7 showed a Kd of 11 ± 1 nM.
Regarding B8, the Kd is 24 ± 2 nM. This Kd lies about 2.2-fold higher than the previous one.
In the case of B9 it was 52 ± 4 nM; in that of B10, 42 ± 5 nM.
In the case of B11 it was 67 ± 8 nM.
In the case of B12 it was 80 ± 40 nM.
Take B13: the Kd was found to be 11 ± 0.5 nM. Against the preceding molecule, the Kd is about 7.3-fold lower.
The value for B14 was 62 ± 16 nM.
On to B15, for which the Kd was found to be 11 ± 0.6 nM.
B16 had a Kd of 11.8 ± 0.5 nM.
Take B17: the affinity, expressed as Kd, was 15.9 ± 0.6 nM.
The value for B18 was 48 ± 8 nM; that for B19 was 10.8 ± 0.7 nM; that for B20 was 42.7 ± 3.1 nM.
The molecule B21 had a Kd of 34 ± 4 nM.
In the case of B22 it was 5.46 ± 0.29 nM; in that of B23, 16.1 ± 0.8 nM.
